Here are results for 1 molecule from patent publication US20180265577A1 (Eli Lilly, published 2018).

Test [1] has as its target T1, tau aggregates in sarkosyl-insoluble brain homogenate preps of 4.5 to 5 month old P301S mice. As to the kind of experiment: cell-based or functional assay.
The target of test [2] is T2, recombinant tau (rTau) (UniProt P10636-8 1-441, limits assumed).
T2 construct: Coated at 'high' (1 ug/mL, simulates aggregated tau) or 'low' (15 ng/mL, simulates tau monomer) concentration; also called rTau Monomer
As to the kind of experiment: direct ELISA, rTau coated at 'Low' concentration (15 ng/mL), simulates tau monomer. Here is the method: (§1) 3690) at a concentration corresponding to 0.7 μg/ml of total tau. Plates are incubated overnight at 4° C., then washed three times with 150 μl of PBST (PBS containing 0.05% Tween-20), blocked in 100 μl BB3 (ImmunoChemistry Technology, p/n. 643) at room temperature for at least 1 hr (usually 2 hrs). Following blocking, the blocking buffer is removed from the wells. Exemplified tau monoclonal antibody of Example 1 and a humanized MC-1 antibody construct (having the framework combination: 5-51 heavy-chain, A27 light-chain) are diluted in 0.25% casein buffer to 1000 nM stock, then diluted serially 23 times with two fold dilutions. […] Reaction is stopped by adding 50 μl stop solution (2N H2SO4) and colorimetric signal is measured at 450 nm. […]
(§2) Selectivity of tau monoclonal antibody of Example 1 to tau aggregates versus tau monomer is determined by direct ELISA. […] The plates, coated with high or low concentrations of rTau, respectively, are exposed to exemplified tau monoclonal antibody of Example 1 and binding of exemplified tau monoclonal antibody to the respective concentrations of rTau is measured substantially as described in the ELISA assay above.

Test [3] concerns the target T3, human tau aggregates (human, UniProt P10636 2-758).
T3 construct: analyte in SPR; also called fibril tau; tau fibril aggregate
As to the kind of experiment: SPR (Biacore 2000), antibody captured on protein A, tau aggregate as analyte, 1:1 fit. Here is the method:
(§3) Surface Plasmon Resonance (SPR) assay, measured with a BIACORE® 2000 instrument (primed with HBS-EP+ running buffer (GE Healthcare, 10 mM Hepes pH7.4+150 mM NaCl+3 mM EDTA+0.05% surfactant P20) at 25° C.), is used to measure binding of exemplified tau monoclonal antibody of Example 1 to both human monomeric (e.g., native or non-aggregate) tau and human tau aggregates (both having the amino acid sequence as set forth in SEQ ID NO:13). Binding of humanized MC-1 antibody construct (having the framework combination: 5-51 heavy-chain, A27 light-chain) to human monomeric tau and human tau aggregate is measured in the same manner.
(§4) Except as noted, all reagents and materials are from BIACORE® AB (Upsala, Sweden). A CMS chip containing immobilized protein A (generated using standard NHS-EDC amine coupling) on all four flow cells (FC) is used to employ a capture methodology. […]
(§5) Data of binding to tau aggregate is processed using standard double-referencing and fit to a 1:1 binding model using Biacore 2000 Evaluation software, version 4.1, to determine the association rate (kₒₙ, M⁻¹ s⁻¹ units), dissociation rate (koff, s⁻¹ units), and Rₘₐₓ (RU units). The equilibrium dissociation constant (KD) was calculated from the relationship KD=koff/kₒₙ, and is in molar units. Data of binding to monomeric tau cannot be determined accurately by SPR as described above due to rapid on- and off-rates. […]

Test [4] concerns the target T2, recombinant tau (rTau). As to the kind of experiment: direct ELISA on rTau coated at 15 ng/ml; antibody stored 4 weeks at pH 4, 40 C; Study 2. Here is the method:
(§6) Formulated samples are incubated for four weeks at 4° C. or 40° C. in an accelerated degradation study. Following incubation, binding affinity of the exemplified tau monoclonal antibody of Example 1 to rTau (15 ng/ml) coated on 96-well plates is determined by direct ELISA following the ELISA procedure substantially as described above.
On the technique in general: An ELISA detects its analyte on a solid surface through an enzyme-linked reagent.

Test [5] has as its target T2, recombinant tau (rTau). Nature of the test: direct ELISA, rTau coated at 'High' concentration (1 ug/mL), simulates aggregated tau. Here is the method:
as §1, §2

Test [6] addresses T4, purified tau fibrils from AD brain homogenates (human, UniProt P10636-8 2-441, limits assumed).
T4 construct: Native brain-derived aggregated tau, coated at 0.7 ug/ml total tau; also called Purified AD Tau Fibrils; aggregate tau fibrils from AD brain homogenates
As to the kind of experiment: direct ELISA on coated purified AD tau fibrils (0.7 ug/ml total tau). Here is the method:
(§7) Purified tau fibrils (50 μl) in PBS are coated on wells of 96-well plates (Coastar, p/n. 3690) at a concentration corresponding to 0.7 μg/ml of total tau. Plates are incubated overnight at 4° C., then washed three times with 150 μl of PBST (PBS containing 0.05% Tween-20), blocked in 100 μl BB3 (ImmunoChemistry Technology, p/n. 643) at room temperature for at least 1 hr (usually 2 hrs). Following blocking, the blocking buffer is removed from the wells. Exemplified tau monoclonal antibody of Example 1 and a humanized MC-1 antibody construct (having the framework combination: 5-51 heavy-chain, A27 light-chain) are diluted in 0.25% casein buffer to 1000 nM stock, then diluted serially 23 times with two fold dilutions. 50 μl of stock and serially diluted antibody (either exemplified tau monoclonal of Example 1 or humanized MC-1 antibody construct) are added to separate wells and incubated for 2 hours at room temperature, after which the plate is washed four times with 200 μl PBST per well. 50 μl of anti-human IgG-HRP antibodies (diluted at 1:4000 into 0.25% casein buffer) is added and incubated for 1 hour at room temperature, after which the plate is washed with 200 μl PBST per well 4 times. 50 μl of TMB/H2O2 is added and incubated at room temperature for about 10 minutes. Reaction is stopped by adding 50 μl stop solution (2N H2SO4) and colorimetric signal is measured at 450 nm. […]

Test [7] has as its target T4, purified tau fibrils from AD brain …. Nature of the test: direct ELISA on coated purified AD tau fibrils. Here is the method: as §7
Test [8] has as its target T2, recombinant tau (rTau). Nature of the test: direct ELISA on rTau coated at 15 ng/ml; antibody stored 4 weeks at pH 6, 40 C; Study 2. Here is the method: as §6
For test [9], the target named is T2, recombinant tau (rTau). As to the kind of experiment: direct ELISA on rTau coated at 15 ng/ml; antibody stored 4 weeks at pH 6, 40 C; Study 1. Here is the method: as §6
Test [10] has as its target T5, human monomeric (native or non-aggregate) tau (human, UniProt P10636 2-758).
T5 construct: Full-length human tau in monomeric state; analyte in SPR; also called Monomeric Tau; monomeric tau
Nature of the test: SPR (Biacore 2000), antibody captured on protein A, tau as analyte, steady state fit. Here is the method: as §3, §4, §5
(SPR reads the build-up and loss of mass on a sensor chip optically.)

In test [11] the target is T3, human tau aggregates. Nature of the test: SPR (Biacore 2000), antibody captured on protein A, tau aggregate as analyte, 1:1 fit; not normalized for avidity. Here is the method:
as §3, §4, §5

Test [12] has as its target T2, recombinant tau (rTau). As to the kind of experiment: direct ELISA on rTau coated at 15 ng/ml; antibody stored 4 weeks at pH 4, 40 C; Study 1. Here is the method:
as §6

For test [13], the target named is T2, recombinant tau (rTau). As to the kind of experiment: direct ELISA on rTau coated at 15 ng/ml; antibody stored 4 weeks at pH 6, 4 C; Study 2. Here is the method: as §6
Test [14] has as its target T2, recombinant tau (rTau). Nature of the test: direct ELISA on rTau coated at 15 ng/ml; antibody stored 4 weeks at pH 6, 4 C; Study 1. Here is the method: as §6
The target in test [15] is T1, tau aggregates in sarkosyl-insoluble …. Nature of the test: cell-based or functional assay. The source holds these as a separate data set.
Test [16] deals with T2, recombinant tau (rTau). As to the kind of experiment: direct ELISA, rTau coated at high (1 ug/mL) against low (15 ng/mL) concentration. Here is the method: as §1, §2

T3 sequence (P10636 other isoform, or with tags, fused parts or gaps limits assumed): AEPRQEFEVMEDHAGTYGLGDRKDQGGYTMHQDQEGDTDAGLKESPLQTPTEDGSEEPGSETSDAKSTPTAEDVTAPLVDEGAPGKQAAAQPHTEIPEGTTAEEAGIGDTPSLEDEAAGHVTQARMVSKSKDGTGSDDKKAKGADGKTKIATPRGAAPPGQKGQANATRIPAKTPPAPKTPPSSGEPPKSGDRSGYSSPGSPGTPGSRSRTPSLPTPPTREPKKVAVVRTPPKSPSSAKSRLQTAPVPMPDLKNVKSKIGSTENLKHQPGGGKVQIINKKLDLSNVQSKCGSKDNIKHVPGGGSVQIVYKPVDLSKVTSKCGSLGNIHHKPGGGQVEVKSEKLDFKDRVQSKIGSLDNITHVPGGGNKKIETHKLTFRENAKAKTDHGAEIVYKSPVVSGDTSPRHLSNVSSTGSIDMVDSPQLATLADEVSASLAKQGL
T2 sequence (P10636 other isoform, or with tags, fused parts or gaps limits assumed): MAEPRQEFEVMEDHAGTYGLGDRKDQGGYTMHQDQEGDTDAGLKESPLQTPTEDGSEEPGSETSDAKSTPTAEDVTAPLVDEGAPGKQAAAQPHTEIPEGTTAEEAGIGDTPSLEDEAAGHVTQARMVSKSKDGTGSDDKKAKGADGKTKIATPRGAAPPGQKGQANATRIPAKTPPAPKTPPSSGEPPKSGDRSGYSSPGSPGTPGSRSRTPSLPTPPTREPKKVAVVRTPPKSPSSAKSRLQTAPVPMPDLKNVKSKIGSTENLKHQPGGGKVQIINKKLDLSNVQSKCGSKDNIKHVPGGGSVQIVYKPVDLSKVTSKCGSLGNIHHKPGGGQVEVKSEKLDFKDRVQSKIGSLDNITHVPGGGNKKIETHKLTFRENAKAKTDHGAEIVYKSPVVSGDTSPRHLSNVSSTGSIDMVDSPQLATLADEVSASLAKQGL

B1: exemplified tau monoclonal antibody of Example 1 (antibody, human IgG4 S228P, kappa, F234A L235A, V domains shown)
VH: EVQLVQSGAEVKKPGESLKISCKGSGYTFSNYWIEWVRQMPGKGLEWMGEILPGSDSIKYEKNFKGQVTISADKSISTAYLQWSSLKASDTAMYYCARRGNYVDDWGQGTLVTVSS
VL: EIVLTQSPGTLSLSPGERATLSCRSSQSLVHSNQNTYLHWYQQKPGQAPRLLIYKVDNRFSGIPDRFSGSGSGTDFTLTISRLEPEDFAVYYCSQSTLVPLTFGGGTKVEIKR
notes: Humanized IgG4 (HC framework 5-51), kappa LC (framework A27); expressed in CHO cells; Carries seven CDR changes relative to murine MC-1; also called exemplified engineered tau monoclonal antibody
Consider B1, for which, in [1], the “fold improvement in the inhibition of induced tau aggregate propagation (against humanized MC-1 antibody construct)” value was around 30 fold. The EC50 is 0.723 nM with recombinant tau (rTau) [2]; 0.277 nM with recombinant tau (rTau) [4]; 0.006 nM in the test with recombinant tau (rTau) [5]; 0.0068 nM in test [6]; 0.667 nM with recombinant tau (rTau) [8]; 0.754 nM in the test with recombinant tau (rTau) [9]. Moreover, the EC50 with recombinant tau (rTau) [12] came to 0.414 nM; in the test with recombinant tau (rTau) [13], 0.636 nM; with recombinant tau (rTau) [14], 0.926 nM. In the test with human tau aggregates [3], the koff was below 1e-05 s⁻¹. In addition, in the test with human tau aggregates [3], the kon turned out to be 45900 M⁻¹ s⁻¹. Moreover, in test [7], the “fold improved affinity (as measured by EC50) over humanized MC-1 antibody construct” value is 60 fold. Further, the Kd was 235 nM in test [10] and below 0.22 nM with human tau aggregates [11]. The “EC50 (representing inhibition of AT8-Positive Tau Aggregate propagation (ng/mL))” value in test [15] amounted to 16 ng/mL. Moreover, the “fold improved affinity (as measured by EC50) to aggregate tau over monomeric tau” value with recombinant tau (rTau) [16] turned out to be 120 fold.

As usually defined, the EC50 is the concentration giving half of the maximal effect. What is called koff is a measure of how fast the partners let go of each other. The term kon denotes the rate constant with which the complex forms.
